The values that follow are results of earlier work, collected in article PMC7364852.

This series deals with Spike RBD (SARS-CoV-2) (UniProt P0DTC2).

What is called Kd is the concentration at which binding is half-saturated. On to SBP1 (from UniProt Q9BYF1), for which the Kd is 0.047 µM.
